Data taken from PMC3278561 (Plant Cell Reports, 2011).

Molecular target: the molecule itself
Test: transmission electron microscopy

B1: plant-derived Norwalk virus capsid protein (NVCP), assembled as virus-like particles (VLP) (natural protein)
chain: MMMASKDATSSVDGASGAGQLVPEVNASDPLAMDPVAGSSTAVATAGQVNPIDPWIINNFVQAPQGEFTISPNNTPGDVLFDLSLGPHLNPFLLHLSQMYNGWVGNMRVRIMLAGNAFTAGKIIVSCIPPGFGSHNLTIAQATLFPHVIADVRTLDPIEVPLEDVRNVLFHNNDRNQQTMRLVCMLYTPLRTGGGTGDSFVVAGRVMTCPSPDFNFLFLVPPTVEQKTRPFTLPNLPLSSLSNSRAPLPISSMGISPDNVQSVQFQNGRCTLDGRLVGTTPVSLSHVAKIRGTSNGTVINLTELDGTPFHPFEGPAPIGFPDLGGCDWHINMTQFGHSSQTQYDVDTTPDTFVPHLGSIQANGIGSGNYVGVLSWISPPSHPSGSQVDLWKIPNYGSSITEATHLAPSVYPPGFGEVLVFFMSKMPGPGAYNLPCLLPQEYISHLASEQAPTVGEAALLHYVDPDTGRNLGEFKAYPDGFLTCVPNGASSGPQQLPINGVFVFVSWVSRFYQLKPVGTASSARGRLGLRR
binding result: binds
